Experimental data from patent US20090011988A1 (Genentech, published 2009).
Positions of bridges follow the written chain, without caps; N, C: chain ends. No end group written: not given here.

T1: human IGFBP-1 (human, UniProt P08833 26-259)
T1 sequence (looked up): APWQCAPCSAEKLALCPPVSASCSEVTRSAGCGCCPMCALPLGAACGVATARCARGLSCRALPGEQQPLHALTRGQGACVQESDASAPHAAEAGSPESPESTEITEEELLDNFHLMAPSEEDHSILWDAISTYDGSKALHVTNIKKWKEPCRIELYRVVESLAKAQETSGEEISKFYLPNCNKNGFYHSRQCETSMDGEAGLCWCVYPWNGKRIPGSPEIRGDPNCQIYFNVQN

B1: (i+8)C (peptide)
peptide: Ac-RAGPLEWLAEKYFE
modifications: linker 6-14 via 1,5‑diaminopentane
B2: (i+8)B (peptide)
peptide: Ac-RPLEWLAEKYFE
modifications: linker 4-12 via 1,5‑diaminopentane
B3: (i+7)D (peptide)
peptide: Ac-RAGPLEWLAEKYEG
modifications: linker 6-13 via 1,5‑diaminopentane
B4: (i+7)A (peptide)
peptide: Ac-CRAGPLQELCEKYAE
modifications: disulfide 1-10 (inferred); linker 8-15 via 1,5‑diaminopentane
B5: (i+7)C (peptide)
peptide: Ac-PLEWLAEKYEG
modifications: linker 3-10 via 1,5‑diaminopentane
B6: BP-23 (peptide)
peptide: ELDGWVCIKVGEQNLCYLAEG-NH2
modifications: disulfide 7-16; N-terminus assumed
SMILES: CC[C@H](C)[C@@H]1NC(=O)[C@@H](NC(=O)[C@@H](NC(=O)[C@H](Cc2c[nH]c3ccccc23)NC(=O)CNC(=O)[C@H](CC(=O)O)NC(=O)[C@H](CC(C)C)NC(=O)[C@@H](N)CCC(=O)O)C(C)C)CSSC[C@@H](C(=O)N[C@@H](Cc2ccc(O)cc2)C(=O)N[C@@H](CC(C)C)C(=O)N[C@@H](C)C(=O)N[C@@H](CCC(=O)O)C(=O)NCC(N)=O)NC(=O)[C@H](CC(C)C)NC(=O)[C@H](CC(N)=O)NC(=O)[C@H](CCC(N)=O)NC(=O)[C@H](CCC(=O)O)NC(=O)CNC(=O)[C@H](C(C)C)NC(=O)[C@H](CCCCN)NC1=O
notes: also called peptide of phage clone 4C3.2
B7: BP3-08 (peptide)
peptide: TVANCDCYMPLCLCYDSD
modifications: disulfide 7-12; disulfide 5-14 (inferred)
B8: BP-24 (peptide)
peptide: WFKTVCYEWEDEVQCYTLEEG-NH2
modifications: disulfide 6-15; N-terminus assumed
SMILES: CC(C)C[C@H](NC(=O)[C@@H](NC(=O)[C@H](Cc1ccc(O)cc1)NC(=O)[C@@H]1CSSC[C@H](NC(=O)[C@@H](NC(=O)[C@@H](NC(=O)[C@H](CCCCN)NC(=O)[C@H](Cc2ccccc2)NC(=O)[C@@H](N)Cc2c[nH]c3ccccc23)[C@@H](C)O)C(C)C)C(=O)N[C@@H](Cc2ccc(O)cc2)C(=O)N[C@@H](CCC(=O)O)C(=O)N[C@@H](Cc2c[nH]c3ccccc23)C(=O)N[C@@H](CCC(=O)O)C(=O)N[C@@H](CC(=O)O)C(=O)N[C@@H](CCC(=O)O)C(=O)N[C@@H](C(C)C)C(=O)N[C@@H](CCC(N)=O)C(=O)N1)[C@@H](C)O)C(=O)N[C@@H](CCC(=O)O)C(=O)N[C@@H](CCC(=O)O)C(=O)NCC(N)=O
notes: also called peptide of phage clone 4D3.5
B9: BP3-4D3.11 (peptide)
peptide: VAWEVCWDRHDQGYICTTDS
modifications: disulfide 6-16
B10: BP3-4D3.11DEL (peptide)
peptide: AWEVCWDRHQGYICTTDS
modifications: disulfide 5-14
B11: BP3-4B3.3 (peptide)
peptide: EESECFEGPGYVICGLVG
modifications: disulfide 5-14
B12: BP3-16 (peptide)
peptide: VCWPVAEWYLCNMWG
modifications: disulfide 2-11
B13: BP3-02-ox (peptide)
peptide: DMGVCADGPWMYVCEWTE
modifications: disulfide 5-14
B14: BP3-06 (peptide)
peptide: TGVDCQCGPVHCVCMDWA
modifications: disulfide 7-12; disulfide 5-14 (inferred)
B15: BP3-40 (peptide)
peptide: Ac-SEEVCWPVAEWYLCN-NH2
modifications: disulfide 5-14
SMILES: CC(=O)N[C@@H](CO)C(=O)N[C@@H](CCC(=O)O)C(=O)N[C@@H](CCC(=O)O)C(=O)N[C@H](C(=O)N[C@H]1CSSC[C@@H](C(=O)N[C@@H](CC(N)=O)C(N)=O)NC(=O)[C@H](CC(C)C)NC(=O)[C@H](Cc2ccc(O)cc2)NC(=O)[C@H](Cc2c[nH]c3ccccc23)NC(=O)[C@H](CCC(=O)O)NC(=O)[C@H](C)NC(=O)[C@H](C(C)C)NC(=O)[C@@H]2CCCN2C(=O)[C@H](Cc2c[nH]c3ccccc23)NC1=O)C(C)C
B16: BP3-28 (peptide)
peptide: EEVCWPVAEWYLCN
modifications: disulfide 4-13
B17: BP3-30 (peptide)
peptide: ASEEVCWPVAEWYLCN
modifications: disulfide 6-15
B18: BP3-41 (peptide)
peptide: GPETCWPVAEWYLCN
modifications: disulfide 5-14
B19: BP3-24 (peptide)
peptide: WPVAEWYLCN
notes: only one Cys, no intact disulfide
B20: BP3-25 (peptide)
peptide: CWPVAEWYLCN
modifications: disulfide 1-10
B21: 4D3.3P (peptide)
peptide: ASEEVCWPVAEWYLCNMWGR
modifications: disulfide 6-15
B22: BP3-27 (peptide)
peptide: EVCWPVAEWYLCN
modifications: disulfide 3-12
B23: BP3-39 (peptide)
peptide: SEEVCWPVAEWYLCN-NH2
modifications: disulfide 5-14; N-terminus assumed
SMILES: CC(C)C[C@@H]1NC(=O)[C@H](Cc2ccc(O)cc2)NC(=O)[C@H](Cc2c[nH]c3ccccc23)NC(=O)[C@H](CCC(=O)O)NC(=O)[C@H](C)NC(=O)[C@H](C(C)C)NC(=O)[C@@H]2CCCN2C(=O)[C@H](Cc2c[nH]c3ccccc23)NC(=O)[C@@H](NC(=O)[C@@H](NC(=O)[C@H](CCC(=O)O)NC(=O)[C@H](CCC(=O)O)NC(=O)[C@@H](N)CO)C(C)C)CSSC[C@@H](C(=O)N[C@@H](CC(N)=O)C(N)=O)NC1=O
B24: BP1-20 (peptide)
peptide: EARVCRAGPLQWLCEKYF-NH2
modifications: disulfide 5-14; N-terminus assumed
SMILES: CC(C)C[C@@H]1NC(=O)[C@H](Cc2c[nH]c3ccccc23)NC(=O)[C@H](CCC(N)=O)NC(=O)[C@H](CC(C)C)NC(=O)[C@@H]2CCCN2C(=O)CNC(=O)[C@H](C)NC(=O)[C@H](CCCNC(=N)N)NC(=O)[C@@H](NC(=O)[C@@H](NC(=O)[C@H](CCCNC(=N)N)NC(=O)[C@H](C)NC(=O)[C@@H](N)CCC(=O)O)C(C)C)CSSC[C@@H](C(=O)N[C@@H](CCC(=O)O)C(=O)N[C@@H](CCCCN)C(=O)N[C@@H](Cc2ccc(O)cc2)C(=O)N[C@@H](Cc2ccccc2)C(N)=O)NC1=O
B25: BP1-40 (peptide)
peptide: GQQSCRAGPLQWLCEKYFSTY
modifications: disulfide 5-14
notes: also called Y0791A
B26: BP1-21A (peptide)
peptide: SEVGCRAGPLQWLCEKYFSTY-NH2
modifications: disulfide 5-14; N-terminus assumed
SMILES: CC(C)C[C@@H]1NC(=O)[C@H](Cc2c[nH]c3ccccc23)NC(=O)[C@H](CCC(N)=O)NC(=O)[C@H](CC(C)C)NC(=O)[C@@H]2CCCN2C(=O)CNC(=O)[C@H](C)NC(=O)[C@H](CCCNC(=N)N)NC(=O)[C@@H](NC(=O)CNC(=O)[C@@H](NC(=O)[C@H](CCC(=O)O)NC(=O)[C@@H](N)CO)C(C)C)CSSC[C@@H](C(=O)N[C@@H](CCC(=O)O)C(=O)N[C@@H](CCCCN)C(=O)N[C@@H](Cc2ccc(O)cc2)C(=O)N[C@@H](Cc2ccccc2)C(=O)N[C@@H](CO)C(=O)N[C@H](C(=O)N[C@@H](Cc2ccc(O)cc2)C(N)=O)[C@@H](C)O)NC1=O
notes: also called Y135C

Biological target: T1, human IGFBP-1
Experiment: BIAcore inhibition assay
Procedure: Peptides were assayed in a BIAcore™ assay as described in WO 98/45427, supra.

Binder	fold potency reduction, IC50 (BP1-01)/IC50 (mut)
B1	5.9
B2	7.7
B3	7.7
B4	40
B5	20

Biological target: T2, recombinant human IGFBP-3 (human, UniProt P17936 28-291)
T2 sequence (P17936 28-291 limits assumed): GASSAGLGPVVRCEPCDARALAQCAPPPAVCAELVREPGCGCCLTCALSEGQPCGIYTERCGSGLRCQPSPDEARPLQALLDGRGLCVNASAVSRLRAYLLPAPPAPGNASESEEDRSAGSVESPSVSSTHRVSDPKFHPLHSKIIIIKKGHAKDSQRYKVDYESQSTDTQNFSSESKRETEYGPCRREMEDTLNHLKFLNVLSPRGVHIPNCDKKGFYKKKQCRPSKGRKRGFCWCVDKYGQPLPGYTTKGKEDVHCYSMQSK
Experiment: BIAcore competition, IGFBP-3 to immobilized IGF-1
Procedure: IGF-1 was immobilized on a dextran chip for inhibition assays using a BIACORE™ 2000 surface-plasmon-resonance device (BIAcore, Inc., Piscataway, N.J.) to measure free binding protein. IGF-1 was biotinylated as described above, and injected over a chip to which streptavidin had been coupled (BIAcore, Inc.) to give 400 to 800 RU (response units) of immobilized IGF-1. […] After incubation for >1 hour at room temperature, an aliquot of 20:L was injected at a flow rate of 20:L/min over the IGF-1 chip. […]

Binder	IC50 [µM]
B6	220
B7	15
B8	100 to 300
B9	< 10
B10	80
B11	80
B12	30
B13	12
B14	5

Biological target: T2, recombinant human IGFBP-3
Experiment: BIAcore competition, IGFBP-3 to IGF-1
Procedure: IGF-1 was immobilized on a dextran chip for inhibition assays using a BIACORE™ 2000 surface-plasmon-resonance device (BIAcore, Inc., Piscataway, N.J.) to measure free binding protein. IGF-1 was biotinylated as described above, and injected over a chip to which streptavidin had been coupled (BIAcore, Inc.) to give 400 to 800 RU (response units) of immobilized IGF-1. […] After incubation for >1 hour at room temperature, an aliquot of 20:L was injected at a flow rate of 20:L/min over the IGF-1 chip.

Binder	IC50 [µM]
B15	0.66
B16	5.4
B17	5.6
B18	4
B19	> 1000
B20	46
B21	5.6
B22	2.8
B23	0.66

Biological target: T1, human IGFBP-1
Experiment: BIAcore kinetics, IGFBP-1 coupled to chip
Procedure: For each dilution of peptides, a global fit of the sensorgram data was performed using a 1:1 Langmuir binding model.

Binder	Kd [µM]
B24	0.033
B25	0.027
B26	0.041
